# From PMC10349818
# How the values were obtained:
# [1] = target: NavAb N49K/L176G mutant (Arcobacter butzleri) (UniProt A8EVM5); assay: crystal structure; protein in DMPC:CHAPSO bicelles, sitting-drop vapour diffusion at 20 °C; cryoprotectant with 2.5 M sodium chloride, with or without 100 mM calcium nitrate; homotetramer around the four-fold axis
# [2] = target: NavAb N49K/L176Q mutant (Arcobacter butzleri) (UniProt A8EVM5); assay: as above
Substance,stoichiometry N [1],stoichiometry N [2]
NavAb N49K/L176G mutant (from UniProt A8EVM5 1-267) (natural protein),4,–
NavAb N49K/L176Q mutant (from UniProt A8EVM5 1-267) (natural protein),–,4
